From the supplement of paper PMC9170038

Test system: MS2 coat protein
Assay: apparent KD of MS2 coat protein; higher = weaker reporter binding
Details: Eterna round: R107
Procedure, shortened: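 Apparent KD is reported per design as the median of normalised binding-curve fits across its clusters. The RNA switches were made by on-chip transcription from Illumina sequencing clusters. SNAP-549-labelled MS2 coat protein was then added in twofold steps (0.7 or 1.5 nM to 3 µM; 0.8–1.5 h to 10–20 min per step) in 100 mM Tris-HCl pH 7.5, 80 mM KCl, 4 mM MgCl2, without or with constant ligand.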

[1] = input ligand: theophylline 20 uM
[2] = input ligand: tryptophan 2.4 mM
[3] = input ligand: theophylline 2 mM

Row | Sequence | apparent KD of MS2 coat protein (input ligand: arginine 13.2 mM) [nM] | apparent KD of MS2 coat protein [1] [nM] | apparent KD of MS2 coat protein [2] [nM] | apparent KD of MS2 coat protein (input ligand: none) [nM] | apparent KD of MS2 coat protein [3] [nM]
1 | UUAAGAGGAUAUCAAAUUUGAUUUUGUGAUACCAGAAUAAUUUUAUUCCCUUGGCAGCAUGACAUGAGGAUCACCCAUGUGUCUU [SSTheo A #1] | 37.3 | 44.3 | 30.9 |  | 
2 | UUAAUCAUAUAUGAAAACAUAUAUGCAGAAGGAGCGUGAUAAAACACAGGUAGGUCGCUGAAGGGAACAUGAGGAUCACCCAUGU [AstrosSSArgA#2] | 47.4 | 49 | 32.4 | 24.8 | 31.5
3 | UUAAUCAUUAUAGAAAACUAUAAUGCAGAAGGAGCGUGAUAAAACACAGGUAGGUCGCUGAAGGGAACAUGAGGAUCACCCAUGU [AstrosSSArgA#6] | 21.3 | 37.8 | 28.8 | 30.3 | 39.4
4 | UUACAUGAGGAUCACCCAUGUCAUACAGAAGGAGCGUCACAUAAGACAGGUAGGUCGCUGUUAUAUCAUACUAUUAUAUCCUCUA [JR_Nu_ExcArginiA_Sub028] | 22 | 53.5 | 33 | 40.4 | 38.2
5 | UUACAUGAGGAUCACCCAUGUCAUACAGAAGGAGCGUCACAUAAGACAGGUAGGUCGCUGUUAUUUUUUACUAUUAUAUCCUCUA [JR_Nu_ExcArginiA_Sub030] | 25 | 45.8 | 25.9 | 30.8 | 31.7
6 | UUAUAAGCACCUGAUACCAGUAUGAACCCGUACAUGAGGAUCACCCAUGUUAAUUUCUAUUACCCUUGGCAGCAGCCUUUUUCCU [theeternabot_sameState_MS2_Theo_B_2] | 18.7 | 28.8 | 21.7 |  | 
7 | UUAUAAGUACCGGUCCUCAGAUCCUCAUGACGAGGACCGGUACGGCCGCCACUCGAAACAUGAGGAUCACCCAUGUAAUAACAUC [Brourdmod21] | 19 | 27.5 |  |  | 25.9
8 | UUAUGCAGGUCGGCCGCCACUACACACAUGAGGAUCACCCAUGUAGUUACUGGGUGAAGUGGCAGUAGGACCGGGACCCGCACAU [Brourdmod21] | 151 | 388 | 383 | 367 | 612
9 | UUAUUUAUAAUUGAUACCAGUUUAAUGGCCGCAAAUCCUGACAUGAGGAUCACCCAUGUAAGCCCUUGGCAGCGGUUAUGGGUUU [XTheo B #25] | 22.8 | 26.4 | 22.1 |  | 
10 | UUAUUUAUAGGCGAUACCAGCCGAAUGGCCGCAAAUCCUAACAUGAGGAUCACCCAUGUCGGCCCUUGGCAGCGCCUAUGGGUUU [XTheo B #27] | 114 | 255 | 93.3 | 94.7 | 480
11 | UUCAAAGGGAACGGUGCUGGUGACAGAGAUACCAGAGUAGUAAUACUCCCUUGGCAGCUCAGAACAUGAGGAUCACCCAUGUAAU [Exclusion Theophylline A GF22] | 18.5 | 29.1 | 17.6 | 18 | 59.2
12 | UUCACGGGCACGGCCGCCACUAACCAACAUGAGGAUCACCCAUGUGUAUUGGACGACCUCUUUGCUAGGACCGGGUGUAUGGUUC [theeternabot_exclusion_MS2_Trp_B_15] | 25.3 | 32.3 |  |  | 32.6
13 | UUCAGCUAGUCGGCCGCCACUACAAGAGGAUCACCCUUGUAAUCCUAACACUGCUUCGGCAGUGGUAGGACCGGGACUAGCUGAG | 15.1 | 17.3 | 20.1 | 14.4 | 13.8
14 | UUCAGCUAGUCGGCCGCCACUACAAGAGGAUCACCCUUGUAGGUCCACACUGCUUCGGCAGUGAGUAGGACCGGGACUAGCUGAG | 10.9 | 13.1 | 17.7 | 11.3 | 13.7
15 | UUCAGCUAGUCGGCCGCCACUACACGAGGAUCACCCGUGUUCCUAAAACACUGCUUCGGCAGUGGUAGGACCGGGACUAGCUGAG | 27.7 | 33 | 123 | 27.9 | 36.7
16 | UUCGCUGAGGGAAGGAGCGUGAAGACAUGAGGAUCACCCAUGUAGAGGCGCCGAAGGCGUUCGCAGGUAGGUCGCCCUCAGUGAG [#1 Same State - Arginine B Attempt #23 (HarryS)] | 17.1 | 24.7 | 17.3 | 16.4 | 17.7
17 | UUCGUAUUGUCGGCCGCCACUGCAACAUGAGGAUCACCCAUGUAAGAAUGGUUGUAAAUAUAUUACAGGACCGGGACAAUAGUAA [JR_ExcTryptoB_Sub018] | 16 | 24.1 |  |  | 23.4
